T1: PUF4 RNA-binding domain (Saccharomyces cerevisiae, UniProt P25339 537-888)
T1 sequence: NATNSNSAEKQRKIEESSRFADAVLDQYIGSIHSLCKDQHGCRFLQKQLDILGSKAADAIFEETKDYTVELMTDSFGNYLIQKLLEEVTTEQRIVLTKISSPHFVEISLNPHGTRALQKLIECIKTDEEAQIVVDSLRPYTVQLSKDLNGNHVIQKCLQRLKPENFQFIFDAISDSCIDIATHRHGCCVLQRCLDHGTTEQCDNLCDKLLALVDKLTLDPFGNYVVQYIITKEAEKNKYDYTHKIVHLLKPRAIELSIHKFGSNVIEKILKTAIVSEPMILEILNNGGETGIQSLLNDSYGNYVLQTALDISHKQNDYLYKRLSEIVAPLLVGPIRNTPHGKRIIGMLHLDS

B1: Ic_S2_P5E.1_K5.1_C5.1_H5.1_A5.1_[T5C]_[A7C]_F5.1_[T9C]_[A10G]_T5.1 (ssRNA)
RNA: UUUGAUUAAUAUGAUAUCGUUCUUUCUUGUACUCUCGUUCUUUCUCGAUAUCAUAUUAAUCUUU
B2: Ic_S2_P5E.1_K5.1_C5.1_H5.1_A5.1_[T6C]_F5.1_[T8A]_[T9A]_[A10C]_T5.1 (ssRNA)
RNA: B1 RNA with C32U, U33C, C34A, U35A, C36A, G37C
B3: Ic_S2_P5E.1_K5.1_C5.1_H5.1_A5.1_[T5C]_F5.1_[T8A]_[T9A]_T5.1 (ssRNA)
RNA: B1 RNA with C34A, U35A, C36A, G37A
B4: Ic_S2_P5E.1_K5.1_C5.1_H5.1_A5.1_[T5A]_[A7C]_F5.1_[T8A]_[T9C]_[A10C]_T5.1 (ssRNA)
RNA: B1 RNA with C32A, U35A, G37C
B5: Ic_S2_P5E.1_K5.1_C5.1_H5.1_A5.1_[T6A]_[A7T]_F5.1_[T8C]_[T9G]_[A10C]_T5.1 (ssRNA)
RNA: B1 RNA with C32U, U33A, C34U, U35C, C36G, G37C
B6: Ic_S2_P5E.1_K5.1_C5.1_H5.1_A5.1_[T5A]_[T6A]_[A7C]_F5.1_[T9G]_[A10G]_T5.1 (ssRNA)
RNA: B1 RNA with C32A, U33A, C36G
B7: Ic_S2_P5E.1_K5.1_C5.1_H5.1_A5.1_[T5C]_[T6A]_[A7G]_F5.1_[T8C]_[T9C]_T5.1 (ssRNA)
RNA: B1 RNA with U33A, C34G, U35C, G37A
B8: Ic_S2_P5E.1_K5.1_C5.1_H5.1_A5.1_[T5C]_[T6C]_[A7T]_F5.1_[T8C]_[T9G]_[A10C]_T5.1 (ssRNA)
RNA: B1 RNA with U33C, C34U, U35C, C36G, G37C
B9: Ic_S2_P5E.1_K5.1_C5.1_H5.1_A5.1_[T5G]_[T6C]_[A7C]_F5.1_[T8C]_[A10T]_T5.1 (ssRNA)
RNA: B1 RNA with C32G, U33C, U35C, C36U, G37U
B10: Ic_S2_P5E.1_K5.1_C5.1_H5.1_A5.1_[T5C]_[T6C]_[A7T]_F5.1_[T8C]_[T9C]_T5.1 (ssRNA)
RNA: B1 RNA with U33C, C34U, U35C, G37A
B11: Ic_S2_P5E.1_K5.1_C5.1_H5.1_A5.1_[T5C]_[T6G]_[A7C]_F5.1_[T8G]_[T9C]_[A10C]_T5.1 (ssRNA)
RNA: B1 RNA with U33G, U35G, G37C
B12: Ic_S2_P5E.1_K5.1_C5.1_H5.1_A5.1_[T5A]_[A7C]_F5.1_[T8C]_[T9C]_T5.1 (ssRNA)
RNA: B1 RNA with C32A, U35C, G37A
B13: Ic_S2_P5E.1_K5.1_C5.1_H5.1_A5.1_[T5C]_[T6G]_[A7T]_F5.1_[T9G]_[A10T]_T5.1 (ssRNA)
RNA: B1 RNA with U33G, C34U, C36G, G37U
B14: Ic_S2_P5E.1_K5.1_C5.1_H5.1_A5.1_[T5A]_[T6C]_[A7T]_F5.1_[T8A]_[T9G]_[A10T]_T5.1 (ssRNA)
RNA: B1 RNA with C32A, U33C, C34U, U35A, C36G, G37U
B15: Ic_S2_P5E.1_K5.1_C5.1_H5.1_A5.1_[A7C]_F5.1_[T8C]_[T9C]_[A10T]_T5.1 (ssRNA)
RNA: B1 RNA with C32U, U35C, G37U
B16: Ic_S2_P5E.1_K5.1_C5.1_H5.1_A5.1_[T5C]_[T6G]_[A7T]_F5.1_[T8C]_[T9C]_[A10C]_T5.1 (ssRNA)
RNA: B1 RNA with U33G, C34U, U35C, G37C
B17: Ic_S2_P5E.1_K5.1_C5.1_H5.1_A5.1_[T5C]_[T6A]_[A7T]_F5.1_[T8G]_T5.1 (ssRNA)
RNA: B1 RNA with U33A, C34U, U35G, C36U, G37A
B18: Ic_S2_P5E.1_K5.1_C5.1_H5.1_A5.1_[T6C]_F5.1_[T8A]_[A10T]_T5.1 (ssRNA)
RNA: B1 RNA with C32U, U33C, C34A, U35A, C36U, G37U
B19: Ic_S2_P5E.1_K5.1_C5.1_H5.1_A5.1_[T5C]_[A7G]_F5.1_[T8G]_[T9C]_[A10T]_T5.1 (ssRNA)
RNA: B1 RNA with C34G, U35G, G37U
B20: Ic_S2_P5E.1_K5.1_C5.1_H5.1_A5.1_[T5G]_[T6C]_[A7T]_F5.1_[A10T]_T5.1 (ssRNA)
RNA: B1 RNA with C32G, U33C, C34U, C36U, G37U
B21: Ic_S2_P5E.1_K5.1_C5.1_H5.1_A5.1_[T6C]_[A7G]_F5.1_[T8G]_T5.1 (ssRNA)
RNA: B1 RNA with C32U, U33C, C34G, U35G, C36U, G37A
B22: Ic_S2_P5E.1_K5.1_C5.1_H5.1_A5.1_[T5G]_F5.1_[T8A]_[T9C]_[A10C]_T5.1 (ssRNA)
RNA: B1 RNA with C32G, C34A, U35A, G37C
B23: Ic_S2_P5E.1_K5.1_C5.1_H5.1_A5.1_[T5G]_[A7C]_F5.1_[T8A]_[T9C]_[A10T]_T5.1 (ssRNA)
RNA: B1 RNA with C32G, U35A, G37U
B24: Ic_S2_P5E.1_K5.1_C5.1_H5.1_A5.1_[T6A]_[A7G]_F5.1_[T9C]_[A10C]_T5.1 (ssRNA)
RNA: B1 RNA with C32U, U33A, C34G, G37C
B25: Ic_S2_P5E.1_K5.1_C5.1_H5.1_A5.1_[T5C]_[A7C]_F5.1_[T8A]_[T9G]_[A10C]_T5.1 (ssRNA)
RNA: B1 RNA with U35A, C36G, G37C

Changes are numbered by the printed parent chain. Numbers in names are those of the source.

Kd data for 27 molecules are collected here from paper PMC9352680, “A comprehensive thermodynamic model for RNA binding by the Saccharomyces cerevisiae Pumilio protein PUF4”.

For this series, the target named is T1, PUF4 RNA-binding domain. The experiment in a line: Mg; RNA-MaP; 20 mM Na-HEPES pH 7.4, 30 mM KOAc, 0.75 mM MgCl2, 0.1% Tween-20, 5% glycerol, 0.1 mg/mL BSA, 2 mM DTT; 25 C; 0.0125-409.6 nM protein. The settings on record: tags: N-His6-TEV cleaved; C-SNAP kept, Cy3B-labelled; label: tethered on chip by stalled RNA polymerase.
B1 displayed a Kd of 152 nM. This lies in the sub-micromolar range.

B2 came in with a dissociation constant (Kd) of 170 nM. The Kd values of the last two molecules are within 1.5-fold of each other.

The molecule B3 came in with a dissociation constant (Kd) of 55.1 nM.

Molecule B4 yielded a Kd of 545 nM.

In the case of B5, binding was characterised by a dissociation constant (Kd) of 21.9 nM.

B6 displayed a Kd of 26 nM. This Kd and that of the molecule before are within 1.5-fold of each other.

Take B7: the equilibrium dissociation constant (Kd) was 119 nM.

In turn, B8 had a Kd of 101 nM.

Turning to B9, binding was put at a Kd of 254 nM. Against the preceding molecule, the Kd is about 2.5-fold higher.

Take B10: binding was put at a Kd of 110 nM.

With B11, the Kd came out at 548 nM. Compared with the last molecule, the Kd is about 5-fold higher.

The molecule B12 registered a Kd of 669 nM.

For the molecule B13, the Kd is 31.8 nM.

B14 came in with a Kd of 737 nM.

B15 yielded a Kd of 142 nM.

With B16, binding was characterised by a dissociation constant (Kd) of 167 nM.

In the case of B17, the affinity, expressed as Kd, was 2.58 nM.

Regarding B18, the affinity, expressed as Kd, was 29.9 nM. This Kd is about 12-fold higher than that of the molecule before.

In the case of B19, binding was put at a Kd of 1660 nM.

B20 displayed a Kd of 37.5 nM.

In the case of B21, the affinity, expressed as Kd, was 37.7 nM.

B22: binding was characterised by a dissociation constant (Kd) of 832 nM.

B23: binding was characterised by a dissociation constant (Kd) of 722 nM.

As to B24, binding was characterised by a dissociation constant (Kd) of 17.8 nM.

As to B25, binding was characterised by a dissociation constant (Kd) of 818 nM.

UCUCUUUGUAUAUAUUCUCUU (ssRNA) [Ic_S1_P4E.1_K4.1_C4.1_H4.1_A4.1_F4.1_[T8A]_[A9T]_T4.1] showed a Kd of 3.56 nM. This Kd is about 230-fold lower than that of the molecule before.

UCUCUUUCUAUAUUAUCUCUU (ssRNA) [Ia_S1_P4E.1_K4.1_C4.1_H4.1_[G2C]_A4.1_F4.1_T4.1]: binding was put at a Kd of 1380 nM.

As usually defined, the Kd is the equilibrium constant for the complex coming apart. Low readings indicate tighter binding, high ones weaker binding.
